{"source": "patent US20260167721A1", "key": {"[1]": {"target": "human CD3 (on human Pan-T cells or donor PBMC) (human) (UniProt P07766)", "sequence (P07766 23-207, chain 1 of 4)": "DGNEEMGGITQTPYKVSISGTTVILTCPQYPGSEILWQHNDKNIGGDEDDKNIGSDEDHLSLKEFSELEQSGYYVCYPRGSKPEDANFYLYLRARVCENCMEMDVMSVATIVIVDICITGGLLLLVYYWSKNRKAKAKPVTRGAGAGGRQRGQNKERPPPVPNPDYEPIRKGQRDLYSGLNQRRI", "sequence (P04234 22-171, chain 2 of 4, further chain)": "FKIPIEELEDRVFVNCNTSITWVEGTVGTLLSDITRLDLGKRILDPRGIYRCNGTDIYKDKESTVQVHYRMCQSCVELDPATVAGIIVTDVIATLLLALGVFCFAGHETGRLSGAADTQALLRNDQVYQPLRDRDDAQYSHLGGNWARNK", "sequence (P09693 23-182, chain 3 of 4, further chain)": "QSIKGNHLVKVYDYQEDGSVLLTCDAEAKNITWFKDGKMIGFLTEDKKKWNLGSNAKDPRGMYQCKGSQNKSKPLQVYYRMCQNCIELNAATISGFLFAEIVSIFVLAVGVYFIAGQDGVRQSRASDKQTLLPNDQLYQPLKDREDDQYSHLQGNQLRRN", "sequence (P20963 22-164, chain 4 of 4, further chain)": "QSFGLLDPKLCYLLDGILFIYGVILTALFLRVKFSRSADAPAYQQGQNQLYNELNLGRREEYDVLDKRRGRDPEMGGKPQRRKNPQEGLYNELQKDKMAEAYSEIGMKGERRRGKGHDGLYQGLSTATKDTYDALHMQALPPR", "experiment": "cell-based or functional assay"}, "[2]": {"target": "human CD3 (on the surface of Jurkat wild-type cells and of human Pan T cells) (human) (UniProt P07766)", "sequence (P07766 23-207, chain 1 of 4)": "as the sequence (P07766 23-207, chain 1 of 4) above", "sequence (P09693 23-182, chain 2 of 4, further chain)": "as the sequence (P09693 23-182, chain 3 of 4, further chain) above", "sequence (P04234 22-171, chain 3 of 4, further chain)": "as the sequence (P04234 22-171, chain 2 of 4, further chain) above", "sequence (P20963 22-164, chain 4 of 4, further chain)": "as the sequence (P20963 22-164, chain 4 of 4, further chain) above", "experiment": "flow cytometry, isotype control antibody on Jurkat WT cells"}, "[3]": {"target": "human CD3 (on the surface of Jurkat wild-type cells and of human Pan T cells) (human) (UniProt P07766)", "experiment": "flow cytometry, isotype control antibody on human Pan T cells"}, "RT3-T3.5 (TCR-KO) cells [4]": {"target": "RT3-T3.5 (TCR-KO) cells", "experiment": "flow cytometry, isotype control antibody on RT3-T3.5 (TCR-KO) negative control cells"}, "[5]": {"target": "human CD3 (on the surface of Jurkat wild-type cells and of human Pan T cells) (human) (UniProt P07766)", "experiment": "flow cytometry, control antibody on Jurkat WT cells"}, "[6]": {"target": "human CD3 (on the surface of Jurkat wild-type cells and of human Pan T cells) (human) (UniProt P07766)", "experiment": "flow cytometry, control antibody on human Pan T cells"}, "RT3-T3.5 (TCR-KO) cells [7]": {"target": "RT3-T3.5 (TCR-KO) cells", "experiment": "flow cytometry, control antibody on RT3-T3.5 (TCR-KO) negative control cells"}, "[8]": {"target": "human CD3 (TCR/CD3 complex on the cell surface) (human) (UniProt P07766)", "sequence (P07766 23-207, chain 1 of 4)": "as the sequence (P07766 23-207, chain 1 of 4) above", "sequence (P09693 23-182, chain 2 of 4, further chain)": "as the sequence (P09693 23-182, chain 3 of 4, further chain) above", "sequence (P04234 22-171, chain 3 of 4, further chain)": "as the sequence (P04234 22-171, chain 2 of 4, further chain) above", "sequence (P20963 22-164, chain 4 of 4, further chain)": "as the sequence (P20963 22-164, chain 4 of 4, further chain) above", "experiment": "flow cytometry, Pan-T cells, 1 ug/mL"}, "[9]": {"target": "human CD3 (TCR/CD3 complex on the cell surface) (human) (UniProt P07766)", "experiment": "flow cytometry, Pan-T cells, 10 ug/mL"}, "[10]": {"target": "human CD3 (TCR/CD3 complex on the cell surface) (human) (UniProt P07766)", "experiment": "flow cytometry, Jurkat WT cells, 1 ug/mL"}, "[11]": {"target": "human CD3 (TCR/CD3 complex on the cell surface) (human) (UniProt P07766)", "experiment": "flow cytometry, Jurkat WT cells, 10 ug/mL"}, "[12]": {"target": "CD3 on Jurkat wild-type cells (UniProt P07766)", "sequence (P07766 23-207, chain 1 of 3)": "as the sequence (P07766 23-207, chain 1 of 4) above", "sequence (P04234 22-171, chain 2 of 3, further chain)": "as the sequence (P04234 22-171, chain 2 of 4, further chain) above", "sequence (P09693 23-182, chain 3 of 3, further chain)": "as the sequence (P09693 23-182, chain 3 of 4, further chain) above", "experiment": "flow cytometry on Jurkat WT cells, antibody at 1 ug/ml"}, "[13]": {"target": "CD3 on Jurkat wild-type cells (UniProt P07766)", "experiment": "flow cytometry on Jurkat WT cells, antibody at 10 ug/ml"}, "[14]": {"target": "human CD3 (TCR/CD3 complex on the cell surface) (human) (UniProt P07766)", "experiment": "flow cytometry, gMFI Jurkat WT over Jurkat TCRb KO, 1 ug/mL"}, "[15]": {"target": "human CD3 (TCR/CD3 complex on the cell surface) (human) (UniProt P07766)", "experiment": "flow cytometry, gMFI Jurkat WT over Jurkat TCRb KO, 10 ug/mL"}, "CD33 on KILR-HL60 cells [16]": {"target": "CD33 on KILR-HL60 cells (UniProt P20138)", "sequence (P20138 18-364 limits assumed)": "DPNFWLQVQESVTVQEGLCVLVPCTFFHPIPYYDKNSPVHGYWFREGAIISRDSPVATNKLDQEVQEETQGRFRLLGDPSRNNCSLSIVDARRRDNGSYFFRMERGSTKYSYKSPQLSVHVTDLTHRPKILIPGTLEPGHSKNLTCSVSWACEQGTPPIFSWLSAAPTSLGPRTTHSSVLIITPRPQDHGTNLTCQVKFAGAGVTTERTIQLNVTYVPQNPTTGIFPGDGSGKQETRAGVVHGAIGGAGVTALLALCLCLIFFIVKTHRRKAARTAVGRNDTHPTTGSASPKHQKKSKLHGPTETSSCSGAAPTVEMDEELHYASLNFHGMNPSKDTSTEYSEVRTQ", "experiment": "flow cytometry on KILR-HL60 (CD33 expressing) cells, antibody at 1 ug/ml"}, "CD33 on KILR-HL60 cells [17]": {"target": "CD33 on KILR-HL60 cells (UniProt P20138)", "experiment": "flow cytometry on KILR-HL60 (CD33 expressing) cells, antibody at 10 ug/ml"}, "[18]": {"target": "Jurkat TCRb knockout cells", "experiment": "flow cytometry, Jurkat KO (TCRb knockout) cells, negative control, 1 ug/mL"}, "[19]": {"target": "Jurkat TCRb knockout cells", "experiment": "flow cytometry, Jurkat KO (TCRb knockout) cells, negative control, 10 ug/mL"}, "[20]": {"target": "Jurkat TCRb knockout cells", "experiment": "flow cytometry on Jurkat KO (TCRb knockout) cells, negative control, antibody at 1 ug/ml"}, "[21]": {"target": "Jurkat TCRb knockout cells", "experiment": "flow cytometry on Jurkat KO (TCRb knockout) cells, negative control, antibody at 10 ug/ml"}}, "data": [{"substance": "Gemtuzumab (antibody)", "values": [{"measurement": "Cytokine Release Assay (IFNγ), Donor 0, gMFI max", "setting": "[1]", "result": 5340, "unit": "gMFI"}, {"measurement": "Cytokine Release Assay (IFNγ), Donor 1, gMFI max", "setting": "[1]", "result": 4630, "unit": "gMFI"}, {"measurement": "Cytokine Release Assay (IFNγ), Donor 2, gMFI max", "setting": "[1]", "result": 3580, "unit": "gMFI"}, {"measurement": "Cytokine Release Assay (IFNγ), Donor 3, gMFI max", "setting": "[1]", "result": 4480, "unit": "gMFI"}]}, {"substance": "Isotype Control (antibody)", "values": [{"measurement": "gMFI", "setting": "[2]", "result": 1710, "unit": "gMFI"}, {"measurement": "gMFI", "setting": "[3]", "result": 4370, "unit": "gMFI"}, {"measurement": "gMFI", "setting": "RT3-T3.5 (TCR-KO) cells [4]", "result": 1820, "unit": "gMFI"}]}, {"substance": "SP34 (antibody)", "values": [{"measurement": "gMFI", "setting": "[5]", "result": 114000, "unit": "gMFI"}, {"measurement": "gMFI", "setting": "[6]", "result": 333000, "unit": "gMFI"}, {"measurement": "gMFI", "setting": "RT3-T3.5 (TCR-KO) cells [7]", "result": 7160, "unit": "gMFI"}]}, {"substance": "OKT3 (antibody)", "values": [{"measurement": "% Positive", "setting": "[8]", "result": 99.6, "unit": "%"}, {"measurement": "gMFI", "setting": "[8]", "result": 603000, "unit": "gMFI"}, {"measurement": "% Positive", "setting": "[9]", "result": 99.9, "unit": "%"}, {"measurement": "gMFI", "setting": "[9]", "result": 394000, "unit": "gMFI"}, {"measurement": "gMFI", "setting": "[10]", "result": 54000, "unit": "gMFI"}, {"measurement": "gMFI", "setting": "[11]", "result": 45200, "unit": "gMFI"}, {"measurement": "gMFI", "setting": "[5]", "result": 72300, "unit": "gMFI"}, {"measurement": "gMFI", "setting": "[6]", "result": 300000, "unit": "gMFI"}, {"measurement": "flow cytometry signal", "setting": "[12]", "result": 82100}, {"measurement": "flow cytometry signal", "setting": "[13]", "result": 35800}, {"measurement": "Jurkat WT/KO (Fold)", "setting": "[14]", "result": 11, "unit": "fold"}, {"measurement": "Jurkat WT/KO (Fold)", "setting": "[15]", "result": 11.1, "unit": "fold"}, {"measurement": "flow cytometry signal", "setting": "CD33 on KILR-HL60 cells [16]", "result": 14800}, {"measurement": "flow cytometry signal", "setting": "CD33 on KILR-HL60 cells [17]", "result": 11600}, {"measurement": "gMFI", "setting": "[18]", "result": 4900, "unit": "gMFI"}, {"measurement": "gMFI", "setting": "[19]", "result": 4070, "unit": "gMFI"}, {"measurement": "gMFI", "setting": "RT3-T3.5 (TCR-KO) cells [7]", "result": 4220, "unit": "gMFI"}, {"measurement": "flow cytometry signal", "setting": "[20]", "result": 5180}, {"measurement": "flow cytometry signal", "setting": "[21]", "result": 3680}]}, {"substance": "hIgG1 (antibody)", "values": [{"measurement": "% Positive", "setting": "[8]", "result": 0.8, "unit": "%"}, {"measurement": "gMFI", "setting": "[8]", "result": 1860, "unit": "gMFI"}, {"measurement": "% Positive", "setting": "[9]", "result": 0.8, "unit": "%"}, {"measurement": "gMFI", "setting": "[9]", "result": 1780, "unit": "gMFI"}, {"measurement": "gMFI", "setting": "[10]", "result": 1770, "unit": "gMFI"}, {"measurement": "gMFI", "setting": "[11]", "result": 1740, "unit": "gMFI"}, {"measurement": "flow cytometry signal", "setting": "[12]", "result": 2700}, {"measurement": "flow cytometry signal", "setting": "[13]", "result": 2390}, {"measurement": "Jurkat WT/KO (Fold)", "setting": "[14]", "result": 0.9, "unit": "fold"}, {"measurement": "Jurkat WT/KO (Fold)", "setting": "[15]", "result": 0.9, "unit": "fold"}, {"measurement": "flow cytometry signal", "setting": "CD33 on KILR-HL60 cells [16]", "result": 34300}, {"measurement": "flow cytometry signal", "setting": "CD33 on KILR-HL60 cells [17]", "result": 30200}, {"measurement": "gMFI", "setting": "[18]", "result": 2020, "unit": "gMFI"}, {"measurement": "gMFI", "setting": "[19]", "result": 1860, "unit": "gMFI"}, {"measurement": "flow cytometry signal", "setting": "[20]", "result": 2830}, {"measurement": "flow cytometry signal", "setting": "[21]", "result": 2620}]}, {"substance": "UCHT1 (antibody)", "values": [{"measurement": "gMFI", "setting": "[5]", "result": 102000, "unit": "gMFI"}, {"measurement": "gMFI", "setting": "[6]", "result": 359000, "unit": "gMFI"}, {"measurement": "gMFI", "setting": "RT3-T3.5 (TCR-KO) cells [7]", "result": 5410, "unit": "gMFI"}]}]}
